Laboratory results reported in patent US20240091368A1 (Bicycle, published 2024).
Numbered stars: 1 amine (or outer) side, 2 acyl side, 3 side chain; on linkers, the order of the positions; unused ones are H or OH. Bridge positions count the residues as written; N and C are the ends. Square brackets hold non-standard residues; d marks the D form. Ends that are not written are not given here. * marks the point of attachment. TATA = O=C(CC[*:1])N1CN(C(=O)CC[*:2])CN(C(=O)CC[*:3])C1; hArg = N=C(N)NCCCC[C@H](N)C(=O)O; Agb = N=C(N)NCC[C@H](N)C(=O)O; Pent4ynoyl = C#CCCC(=O)*

B1: BCY17345 (peptide)
peptide: ACNAVLCSWARANSFCA
modifications: linker 2-7-16 via TATA; also: dimer: each monomer attached at C-terminus to central hinge A (PEG23)
B2: BCY19147 (peptide)
peptide: Ac-CNAVLCSWA[hArg]ANSFCK(Pent4ynoyl)
modifications: linker 1-6-15 via TATA; also: trimer: each monomer attached at C-terminus to central hinge B (PEG23)
B3: BCY19071 (peptide)
peptide: Ac-CNSYTCYIKHILG[Agb]C
modifications: linker 1-6-15 via TATA; also: dimer: each monomer attached at C-terminus to central hinge A (PEG23)
B4: BCY17346 (peptide)
peptide: ACNAVLCSWARANSFCA
modifications: linker 2-7-16 via TATA; also: trimer: each monomer C-terminus attached to hinge B (PEG23)
B5: BCY19148 (peptide)
peptide: Ac-CNAVLCSWA[hArg]ANSFCK(Pent4ynoyl)
modifications: linker 1-6-15 via TATA; also: tetramer: each monomer attached at C-terminus to central hinge C (PEG23)
B6: BCY17347 (peptide)
peptide: ACNAVLCSWARANSFCA
modifications: linker 2-7-16 via TATA; also: tetramer: each monomer attached at its C-terminus to central hinge moiety C (PEG23), further groups not given here

molecular target: human ACE2 (angiotensin-converting enzyme 2) (human, UniProt Q9BYF1 18-805); test: cell-based or functional assay
Sequence (Q9BYF1 18-805): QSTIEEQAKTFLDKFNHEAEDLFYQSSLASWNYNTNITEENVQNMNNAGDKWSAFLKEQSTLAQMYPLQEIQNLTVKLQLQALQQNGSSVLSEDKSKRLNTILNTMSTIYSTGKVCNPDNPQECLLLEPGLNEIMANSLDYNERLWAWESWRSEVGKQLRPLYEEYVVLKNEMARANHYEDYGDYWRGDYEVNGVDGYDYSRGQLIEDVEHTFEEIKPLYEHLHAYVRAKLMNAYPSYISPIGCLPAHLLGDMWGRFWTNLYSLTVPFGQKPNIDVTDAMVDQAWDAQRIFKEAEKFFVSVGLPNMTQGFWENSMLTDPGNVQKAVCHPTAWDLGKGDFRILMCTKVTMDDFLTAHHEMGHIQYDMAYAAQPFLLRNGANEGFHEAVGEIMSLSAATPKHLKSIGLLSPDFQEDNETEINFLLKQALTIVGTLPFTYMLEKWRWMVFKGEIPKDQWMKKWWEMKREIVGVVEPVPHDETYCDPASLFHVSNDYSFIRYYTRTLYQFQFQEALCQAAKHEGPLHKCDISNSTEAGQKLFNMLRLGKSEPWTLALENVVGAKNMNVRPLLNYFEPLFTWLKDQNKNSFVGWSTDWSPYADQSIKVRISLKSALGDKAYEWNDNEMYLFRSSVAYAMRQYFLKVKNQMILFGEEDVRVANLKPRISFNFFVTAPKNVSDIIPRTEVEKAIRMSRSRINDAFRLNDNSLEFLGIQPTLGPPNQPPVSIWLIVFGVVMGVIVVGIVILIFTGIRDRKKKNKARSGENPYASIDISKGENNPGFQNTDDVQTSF

Row | Binder | Pseudoviral Neutralisation Assay, Geomean IC50
1 | B1 | 6.96 nM
2 | B2 | 17.7 nM
3 | B3 | 24 nM
4 | ACNAVLCSWARANSFCA (linker 2-7-16 via TATA) [BCY15429] | 1280 nM
5 | B4 | 12 nM
6 | B5 | 10.1 nM
7 | B6 | 3.75 nM
